Data on one molecule can be found in patent US20100151486A1, “OSTEOPONTIN FUNCTIONAL EPITOPES, MONOCLONAL ANTIBODIES AGAINST THE EPITOPES AND USES THEREOF” (SHANGHAI NATIONAL ENGINEERING RESEARCH CENTER OF A, priority 2007, published 2010).

One test addresses T1, human OPN protein (Homo sapiens, UniProt P10451).
T1 construct: made in house; host or cells: Pichia (yeast), culture supernatant
Kind of test: Western blot of 1A12 against human OPN protein. Type of test: binding. On the procedure: 100 ug human OPN and an equal volume of Freund's adjuvant were emulsified, and injected intraperitoneally into BALB/C mice. Boost was given every two weeks at the same dose. […] The mouse spleen lymphocytes were fused with NS-1 cells using the classic PEG method. 96-well plate coated with 10 μg/ml human OPN was used for repeated screening by ELISA method to obtain hybridoma cell line 1A12 which was capable of stably expressing anti-human OPN antibody. The strain of 1A12 was amplified, and administrated to BALB/C mice in 5×10^6 cells/mouse (i.p.). The ascites was collected from the 10th day after the injection. The anti-human OPN monoclonal antibody was purified by affinity chromatography using protein A column.

The test system of the next test is MDA-MB-435s cells. Put plainly: Cell adhesion assay on hOPN-coated plate. Type of test: cell-based. The note with it: antibody 25 μg/ml; plate coated with 10 μg/ml hOPN; 2 hrs. On the procedure:
MDA-MB-435s was purchased from the Institute of Cell Biology of Chinese Academy of Sciences (Shanghai, China), and 23C3D3 was used as the irrelevant antibody.
A 96-well plate (Greiner) was coated with 10 μg/ml hOPN (prepared in Example 3) or BSA (SIGMA) at 4° C. overnight, and was then blocked with 1% BSA/PBS at 37° C. for 1 hour to block any non-specific binding sites. The MDA-MB-435s cells were detached using 0.2% EDTA and then re-suspended in 0.25% BSA/DMEM at the concentration of 5×10^5 cells/ml. To each well, 100 μl (5×10^4) MDA-MB-435s cells were added in the presence of various anti-OPN antibodies (25 μg/ml) murine anti-human OPN antibody 1A12, the human-murine chimeric antibody c 1A12 or the humanized antibody h1A12 as treatment groups and the irrelevant antibody 23C3 as control (25 μg/ml). After incubation at 37° C. for 2 hrs, the medium was removed and washed twice with PBS gently. The adherent cells were fixed in 1% formaldehyde at 4° C. for 10 minutes, stained with 0.5% crystal violet after washed with PBS and lysed with 2% Triton X-100 (50 μl). The absorbance was measured at 595 nm.

The subject of test [1] is human vascular endothelial cell (HUVEC). Kind of test: HUVEC proliferation by 3H-TdR incorporation. Type of test: cell-based. The following applies: M200+1% BSA+OPN+antibody; 24 hours. As for the experimental part: HUVEC cell proliferation was measured by the ^3H-TdR incorporation method to determine the protective effect of OPN on cell survival and the inhibitory effect of the anti-OPN antibodies on the OPN protection. Each well of a 96-well plate was inoculated with 2×10^4 HUVECs and cultured in a complete medium for 24 hours. The cells were then treated as following for 24 hours: […]
iv. M200+1% BSA+OPN+murine anti-OPN antibody 1A12 v. M200+1% , BSA+OPN+human-murine chimeric anti-OPN antibody c1A12 vi. M200+1% BSA+OPN+humanized anti-OPN antibody h1A12 vii. M200+1% BSA+OPN+irrelevant antibody
24 hours later, 1 uCi/well ^3H-thymidine was added and, after being incubated at 37° C. for 6 hours, washed once with PBS. The plate was treated with ice-cold 10% trichloroacetic acid/H2O at 4° C. for 10 min, and then washed for two times with, ice-cold ddH2O. Cytolysis was conducted by adding into each well 0.1 ml of 0.5 N NaOH, 0.5% SDS at room temperature for 10 min. After adding 0.2 ml of 0.5 N HCl and mixing, the cells were collected using a multiple cell collector.

The test system of the next test is HUVECs. Put plainly: Formation of capillary-like structure in HUVECs on matrigel. Type of test: cell-based, human. On the procedure:
HUVECs were cultured in the M200 medium containing LCGS to 80% confluence. The matrigel stored at −20° C. was took out the day before experiment and naturally thawed at 4° C. for 3 to 12 hours. To each well of a 96-welt plate was added […] using a pre-cooled pipet with carefully removing the bubbles, wherein the whole procedure was carried on ice. The loaded plate was incubated at 37° C. for 1 hour to gel the matrigel. To each well, 100 μl HUVECs (2×10^4/well) was gently added onto the surface of matrigel. To the treatment groups were further added the anti-hOPN antibodies 1A12, c1A12 and h1A12. The plate was incubated at 37° C. for […], and the formation of the capillary-like structure was observed 6 hours after.

Test [2] deals with chicken embryo chorioallantoic membrane (CAM). Kind of test: Chicken embryo chorioallantoic membrane (CAM) angiogenesis assay. It is filed as in vivo. The following applies: human OPN 250 ng + antibody 1 μg; P<0.01. On the procedure: The Leghorn chicken embryos were purchased from the farm with a fertilization rate of >90%. The 8-day old chicken embryos were selected. After sterilization, a small hole was drilled in the center of the top air chamber of the embryo with a lancet, the surrounding shell with the inner membrane was removed with caution to create an opening of 1 cm×1 cm. Then the following analytes/gelatin sponge were added to the CAM surface: i) PBS; ii) HOPN; iii) human OPN (250 ng); iv) human OPN (250 ng)+the irrelevant antibody as control (1 μg); v) human OPN (250 ng)+the murine anti-OPN antibody 1A12 (1 μg); vi) human OPN (250 ng)+the murine-human chimeric anti-OPN antibody c1A12 (1 μg); vii) human OPN (250 ng)+the humanized anti-OPN antibody h1A1.2 (1 μg).
The analytes/gelatin sponge were added to the CAM surface, which was far away from the already-formed dense vascular network. […] The number of vessels within an area edging 2 mm from the edges of the carrier slide was counted under a dissecting microscope to study the angiogenesis using the “vascular index” (Ribatti, D., B. Nico, A. Vacca et al., The gelatin sponge-chorioallantoic membrane assay. Nat Protoc, 2006, 1 (1): 85-91). The number of vessel was counted at the same magnification under the dissecting microscope. The result in each sample group was expressed as “mean±standard deviation (x±S)”. […]

T1 sequence (P10451 17-314): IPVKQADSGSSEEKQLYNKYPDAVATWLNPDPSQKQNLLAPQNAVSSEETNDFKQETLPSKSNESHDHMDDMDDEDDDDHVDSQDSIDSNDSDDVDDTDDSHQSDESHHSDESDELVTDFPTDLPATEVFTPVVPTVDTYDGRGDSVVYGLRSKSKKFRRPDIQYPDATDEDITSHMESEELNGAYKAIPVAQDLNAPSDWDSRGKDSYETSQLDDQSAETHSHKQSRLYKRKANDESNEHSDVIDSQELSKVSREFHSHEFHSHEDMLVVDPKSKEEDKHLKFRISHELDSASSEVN

B1: 1A12: murine anti-hOPN mAb; VH SEQ ID NO: 4, VL SEQ ID NO: 6; from hybridoma 1A12 (antibody, V domains shown)
VH: QVQLEQSGPELVKPGASVKMSCKSSGYTFTTYVMHWVKQKPGQGLEWIGYINPYNDGSKYNEKFKGKATLTSDKSSNTAYMELSSLTSEDSAVYYCASHYGGSPAYWGQGTLVTVSA
VL: DILMTQTPLSLPVSLGDQASISCRSSQSLVHSNGNTYLHWYLQKPGQSPKLLIYKVSNRFSGVPDRFSGSGSGTDFTLKISRVEAEDLGVYFCSQSTHVPWTFGGGTKLEIKR
modifications: amino acid sequence of the heavy chain variable region in 1A12; amino acid sequence of the light chain variable region in 1A12
notes: murine anti-hOPN mAb; from hybridoma 1A12
With B1, the “binding to the human OPN protein” value in the test with human OPN protein is “specifically bound”. For the same molecule, in the test with MDA-MB-435s cells, the “blocking of the binding between MDA-MB-435s cells and hOPN” value was “effectively block”. Besides, in test [1], the “3H-TdR incorporation relative to the OPN group” value is recorded as “significantly lower”. Besides, the “potency of forming the capillary-like structure in HUVECs” value in the test on HUVECs is recorded as “reduce”. The “inhibition of OPN-induced angiogenesis in CAM” value in test [2] was “significantly inhibit”.
